The target in this test is RGD-binding integrins on HeLa cells (α5β1, αvβ5, αvβ3) (human (endogenous in HeLa)). Put plainly: resonant waveguide grating (RWG) live-cell competitive adhesion assay; sensor coated with 50% PPR (RGD peptide); HeLa cells (8000 per well) with soluble S1 or BSA in HEPES-HBSS, 90 min; normalised adhesion fitted with a sigmoidal curve; Kd calculated from the IC50 with [RGD] 2.39 µM and Kd^RGD 9.4 µM.

On to “recombinant human coronavirus SARS-CoV-2 Spike Glycoprotein S1 (Active)”, for which the half-maximal inhibitory concentration (IC50) is 1400 nM and the Kd is 1120 nM.

(Values after paper PMC12384205.)
